The labels stand for the following.
B1: Pituitary-specific positive transcription factor 1, residues 130 to 198; numbered along this chain, P28069 (parent)
chain: RELEKFANEFKVRRIKLGYTQTNVGEALAAVHGSEFSQTTICRFENLQLSFKNACKLKAILSKWLEEAE

± gives the uncertainty stated by the source.

The variants in this data set derive from B1. As to the kind of experiment: abundance fitness (aPCA) (normalised: wild type 0, dead -1); higher = more abundant; growth selection in yeast, the domain comes from the species named. To be noted: Homo sapiens.
With REGEKFANEFKVRRIKLGYTQTNVGEALAAVHGSEFSQTTICRFENLQLSFKNACKLKAILSKWLEEAE, the abundance fitness was -0.571 ± 0.11.

Take REREKFANEFKVRRIKLGYTQTNVGEALAAVHGSEFSQTTICRFENLQLSFKNACKLKAILSKWLEEAE: the abundance fitness was -0.751 ± 0.24. In the case of REIEKFANEFKVRRIKLGYTQTNVGEALAAVHGSEFSQTTICRFENLQLSFKNACKLKAILSKWLEEAE, the abundance fitness is -0.194 ± 0.22.

As to REYEKFANEFKVRRIKLGYTQTNVGEALAAVHGSEFSQTTICRFENLQLSFKNACKLKAILSKWLEEAE, the abundance fitness was -0.22 ± 0.13.

Turning to RESEKFANEFKVRRIKLGYTQTNVGEALAAVHGSEFSQTTICRFENLQLSFKNACKLKAILSKWLEEAE, the abundance fitness is -0.855 ± 0.19. Consider REEEKFANEFKVRRIKLGYTQTNVGEALAAVHGSEFSQTTICRFENLQLSFKNACKLKAILSKWLEEAE, for which the abundance fitness is -0.725 ± 0.29. With RETEKFANEFKVRRIKLGYTQTNVGEALAAVHGSEFSQTTICRFENLQLSFKNACKLKAILSKWLEEAE the figure was -0.867 ± 0.4; with REFEKFANEFKVRRIKLGYTQTNVGEALAAVHGSEFSQTTICRFENLQLSFKNACKLKAILSKWLEEAE, -0.472 ± 0.12. With REKEKFANEFKVRRIKLGYTQTNVGEALAAVHGSEFSQTTICRFENLQLSFKNACKLKAILSKWLEEAE the figure was -0.718 ± 0.26; with REMEKFANEFKVRRIKLGYTQTNVGEALAAVHGSEFSQTTICRFENLQLSFKNACKLKAILSKWLEEAE, -0.469 ± 0.13; with REHEKFANEFKVRRIKLGYTQTNVGEALAAVHGSEFSQTTICRFENLQLSFKNACKLKAILSKWLEEAE, -0.611 ± 0.18.

As for REWEKFANEFKVRRIKLGYTQTNVGEALAAVHGSEFSQTTICRFENLQLSFKNACKLKAILSKWLEEAE, the abundance fitness is -0.715 ± 0.16. With REVEKFANEFKVRRIKLGYTQTNVGEALAAVHGSEFSQTTICRFENLQLSFKNACKLKAILSKWLEEAE the figure was -0.468 ± 0.082; with RELEKFACEFKVRRIKLGYTQTNVGEALAAVHGSEFSQTTICRFENLQLSFKNACKLKAILSKWLEEAE, -0.496 ± 0.16. With RELEKFAAEFKVRRIKLGYTQTNVGEALAAVHGSEFSQTTICRFENLQLSFKNACKLKAILSKWLEEAE, the abundance fitness stood at 0.133 ± 0.064. RELEKDANEFKVRRIKLGYTQTNVGEALAAVHGSEFSQTTICRFENLQLSFKNACKLKAILSKWLEEAE: the abundance fitness was -1.06 ± 0.22. As to RELEKQANEFKVRRIKLGYTQTNVGEALAAVHGSEFSQTTICRFENLQLSFKNACKLKAILSKWLEEAE, the abundance fitness is -0.916 ± 0.13.

Take RELEKRANEFKVRRIKLGYTQTNVGEALAAVHGSEFSQTTICRFENLQLSFKNACKLKAILSKWLEEAE: the abundance fitness was -0.844 ± 0.086. RELEKSANEFKVRRIKLGYTQTNVGEALAAVHGSEFSQTTICRFENLQLSFKNACKLKAILSKWLEEAE: the abundance fitness is -0.997 ± 0.13.

Take RELEKTANEFKVRRIKLGYTQTNVGEALAAVHGSEFSQTTICRFENLQLSFKNACKLKAILSKWLEEAE: the abundance fitness was -0.992 ± 0.17. Regarding RELEKEANEFKVRRIKLGYTQTNVGEALAAVHGSEFSQTTICRFENLQLSFKNACKLKAILSKWLEEAE, the abundance fitness is -0.791 ± 0.14. Turning to RELEKHANEFKVRRIKLGYTQTNVGEALAAVHGSEFSQTTICRFENLQLSFKNACKLKAILSKWLEEAE, the abundance fitness was -0.726 ± 0.12. With RELEKGANEFKVRRIKLGYTQTNVGEALAAVHGSEFSQTTICRFENLQLSFKNACKLKAILSKWLEEAE the figure was -0.688 ± 0.053; with RELEKPANEFKVRRIKLGYTQTNVGEALAAVHGSEFSQTTICRFENLQLSFKNACKLKAILSKWLEEAE, -0.835 ± 0.19. With RELEKCANEFKVRRIKLGYTQTNVGEALAAVHGSEFSQTTICRFENLQLSFKNACKLKAILSKWLEEAE, the abundance fitness is -0.992 ± 0.17. On to RELEKAANEFKVRRIKLGYTQTNVGEALAAVHGSEFSQTTICRFENLQLSFKNACKLKAILSKWLEEAE, for which the abundance fitness is -0.666 ± 0.11. In the case of RELEKKANEFKVRRIKLGYTQTNVGEALAAVHGSEFSQTTICRFENLQLSFKNACKLKAILSKWLEEAE, the abundance fitness is -0.756 ± 0.18. Under RELEKYANEFKVRRIKLGYTQTNVGEALAAVHGSEFSQTTICRFENLQLSFKNACKLKAILSKWLEEAE stands -0.837 ± 0.1.

In the case of RELEKWANEFKVRRIKLGYTQTNVGEALAAVHGSEFSQTTICRFENLQLSFKNACKLKAILSKWLEEAE, the abundance fitness was -0.333 ± 0.052. Under RELEKMANEFKVRRIKLGYTQTNVGEALAAVHGSEFSQTTICRFENLQLSFKNACKLKAILSKWLEEAE stands -0.753 ± 0.095. As to RELEKNANEFKVRRIKLGYTQTNVGEALAAVHGSEFSQTTICRFENLQLSFKNACKLKAILSKWLEEAE, the abundance fitness was -0.88 ± 0.21. Turning to RELEKVANEFKVRRIKLGYTQTNVGEALAAVHGSEFSQTTICRFENLQLSFKNACKLKAILSKWLEEAE, the abundance fitness was -0.941 ± 0.11. Consider RELSKFANEFKVRRIKLGYTQTNVGEALAAVHGSEFSQTTICRFENLQLSFKNACKLKAILSKWLEEAE, for which the abundance fitness is -0.157 ± 0.079. As for RELGKFANEFKVRRIKLGYTQTNVGEALAAVHGSEFSQTTICRFENLQLSFKNACKLKAILSKWLEEAE, the abundance fitness is -0.848 ± 0.35.

In the case of RELKKFANEFKVRRIKLGYTQTNVGEALAAVHGSEFSQTTICRFENLQLSFKNACKLKAILSKWLEEAE, the abundance fitness was -0.084 ± 0.08. In the case of RELVKFANEFKVRRIKLGYTQTNVGEALAAVHGSEFSQTTICRFENLQLSFKNACKLKAILSKWLEEAE, the abundance fitness is -0.072 ± 0.07. In the case of RELTKFANEFKVRRIKLGYTQTNVGEALAAVHGSEFSQTTICRFENLQLSFKNACKLKAILSKWLEEAE, the abundance fitness is -0.249 ± 0.074. For the variant RELDKFANEFKVRRIKLGYTQTNVGEALAAVHGSEFSQTTICRFENLQLSFKNACKLKAILSKWLEEAE, the abundance fitness is -0.612 ± 0.32. Under RELQKFANEFKVRRIKLGYTQTNVGEALAAVHGSEFSQTTICRFENLQLSFKNACKLKAILSKWLEEAE stands -0.245 ± 0.27.

These data come from the Human Domainome abundance scans (Beltran et al. 2025).
